Measurements taken from EP4782466A1, “FUSION PROTEIN FOR INACTIVATING CORONAVIRUS AND USE THEREOF” (priority 2023, dated 2025).

Assays:
Test in all cases: cell-based or functional assay
[1] = target: S protein of SARS-CoV-2 Omicron BA.4.6 (SARS-CoV-2 BA.4.6)
[2] = target: S protein of SARS-CoV-2 Omicron BA.2.12.1 (SARS-CoV-2 BA.2.12.1)
[3] = target: S protein of SARS-CoV-2 Omicron BA.2.2 (SARS-CoV-2 BA.2.2)
[4] = target: S protein of SARS-CoV-2 Omicron BA.2.75 (SARS-CoV-2 BA.2.75)
[5] = target: S protein of SARS-CoV-2 Omicron XBB (SARS-CoV-2 XBB)
[6] = target: S protein of SARS-CoV-2 Beta (B.1.351) (SARS-CoV-2 Beta (B.1.351))
[7] = target: S protein of SARS-CoV-2 Lambda (SARS-CoV-2 Lambda)
[8] = target: S protein of SARS-CoV-2 Omicron BA.1 (SARS-CoV-2 BA.1)
[9] = target: S protein of SARS-CoV-2 Gamma (P.1) (SARS-CoV-2 Gamma (P.1))
[10] = target: S protein of SARS-CoV-2 Omicron BQ.1 (SARS-CoV-2 BQ.1)
[11] = target: S protein of SARS-CoV-2 Omicron BA.5 (SARS-CoV-2 BA.5)
[12] = target: S protein of SARS-CoV-2 Omicron BF.7 (SARS-CoV-2 BF.7)
[13] = target: S protein of SARS-CoV-2 Omicron BA.3 (SARS-CoV-2 BA.3)
[14] = target: S protein of SARS-CoV-2 Alpha (B.1.1.7) (SARS-CoV-2 Alpha (B.1.1.7))
[15] = target: S protein of SARS-CoV-2 Delta (B.1.617.2) (SARS-CoV-2 Delta (B.1.617.2))
[16] = target: S protein of SARS-CoV-2 Omicron BA.2.9 (SARS-CoV-2 BA.2.9)
[17] = target: S protein of SARS-CoV-2 Omicron BA.2 (SARS-CoV-2 BA.2)

“AL5E protein (ACE2-linker-EK1 fusion protein with (GGGGS)5 linker)” showed an EC50, inactivation of pseudovirus (Caco-2, luciferase) [1] of 2.28 nM, a Fold enhancement of AL5E over ACE2 (EC50, pseudovirus inactivation) [1] of 508 fold and a Fold enhancement of AL5E over ACE2 (IC50, pseudovirus inhibition) [1] of 70.8 fold. The IC50, inhibition of pseudovirus infection (Caco-2, luciferase) [1] was 0.93 nM, the EC50, inactivation of pseudovirus (Caco-2, luciferase) [2] was 1.94 nM and the Fold enhancement of AL5E over ACE2 (EC50, pseudovirus inactivation) [2] was 39.2 fold. It also gave a Fold enhancement of AL5E over ACE2 (IC50, pseudovirus inhibition) [2] of 176 fold, an IC50, inhibition of pseudovirus infection (Caco-2, luciferase) [2] of 0.06 nM and an EC50, inactivation of pseudovirus (Caco-2, luciferase) [3] of 3.35 nM. For the same substance, the Fold enhancement of AL5E over ACE2 (EC50, pseudovirus inactivation) [3] was 142 fold, the Fold enhancement of AL5E over ACE2 (IC50, pseudovirus inhibition) [3] was 59.3 fold and the Fold of AL5E over ACE2 (IC50, live BA.2.2 virus inhibition) [3] was 44 fold. The IC50, inhibition of pseudovirus infection (Caco-2, luciferase) [3] was 0.2 nM, the EC50, inactivation of pseudovirus (Caco-2, luciferase) [4] was 1.91 nM and the Fold enhancement of AL5E over ACE2 (EC50, pseudovirus inactivation) [4] was 354 fold. For the same substance, the Fold enhancement of AL5E over ACE2 (IC50, pseudovirus inhibition) [4] was 51 fold, the IC50, inhibition of pseudovirus infection (Caco-2, luciferase) [4] was 0.52 nM and the EC50, inactivation of pseudovirus (Caco-2, luciferase) [5] was 4.69 nM. For the same substance, the Fold enhancement of AL5E over ACE2 (EC50, pseudovirus inactivation) [5] was 45.2 fold, the Fold enhancement of AL5E over ACE2 (IC50, pseudovirus inhibition) [5] was 74.5 fold and the IC50, inhibition of pseudovirus infection (Caco-2, luciferase) [5] was 0.17 nM. It also gave an EC50, inactivation of pseudovirus (Caco-2, luciferase) [6] of 1.57 nM, a Fold enhancement of AL5E over ACE2 (EC50, pseudovirus inactivation) [6] of 78.4 fold and a Fold enhancement of AL5E over ACE2 (IC50, pseudovirus inhibition) [6] of 94.5 fold. It also gave an IC50, inhibition of pseudovirus infection (Caco-2, luciferase) [6] of 0.17 nM, an EC50, inactivation of pseudovirus (Caco-2, luciferase) [7] of 2.75 nM and a Fold enhancement of AL5E over ACE2 (EC50, pseudovirus inactivation) [7] of 42 fold. For the same substance, the Fold enhancement of AL5E over ACE2 (IC50, pseudovirus inhibition) [7] was 427 fold, the IC50, inhibition of pseudovirus infection (Caco-2, luciferase) [7] was 0.03 nM and the EC50, inactivation of pseudovirus (Caco-2, luciferase) [8] was 1.29 nM. It also gave a Fold enhancement of AL5E over ACE2 (EC50, pseudovirus inactivation) [8] of 63.7 fold, a Fold enhancement of AL5E over ACE2 (IC50, pseudovirus inhibition) [8] of 624 fold and an IC50, inhibition of pseudovirus infection (Caco-2, luciferase) [8] of 0.03 nM. The EC50, inactivation of pseudovirus (Caco-2, luciferase) [9] was 2.7 nM, the Fold enhancement of AL5E over ACE2 (EC50, pseudovirus inactivation) [9] was 32.8 fold and the Fold enhancement of AL5E over ACE2 (IC50, pseudovirus inhibition) [9] was 68.5 fold. It also gave an IC50, inhibition of pseudovirus infection (Caco-2, luciferase) [9] of 0.22 nM, an EC50, inactivation of pseudovirus (Caco-2, luciferase) [10] of 3.73 nM and a Fold enhancement of AL5E over ACE2 (EC50, pseudovirus inactivation) [10] of 40 fold. The Fold enhancement of AL5E over ACE2 (IC50, pseudovirus inhibition) [10] was 136 fold, the IC50, inhibition of pseudovirus infection (Caco-2, luciferase) [10] was 0.16 nM and the EC50, inactivation of pseudovirus (Caco-2, luciferase) [11] was 2.27 nM. For the same substance, the Fold enhancement of AL5E over ACE2 (EC50, pseudovirus inactivation) [11] was 148 fold, the Fold enhancement of AL5E over ACE2 (IC50, pseudovirus inhibition) [11] was 382 fold and the IC50, inhibition of pseudovirus infection (Caco-2, luciferase) [11] was 0.04 nM. The EC50, inactivation of pseudovirus (Caco-2, luciferase) [12] was 1.99 nM, the Fold enhancement of AL5E over ACE2 (EC50, pseudovirus inactivation) [12] was 96.3 fold and the Fold enhancement of AL5E over ACE2 (IC50, pseudovirus inhibition) [12] was 362 fold. For the same substance, the IC50, inhibition of pseudovirus infection (Caco-2, luciferase) [12] was 0.28 nM, the EC50, inactivation of pseudovirus (Caco-2, luciferase) [13] was 2.26 nM and the Fold enhancement of AL5E over ACE2 (EC50, pseudovirus inactivation) [13] was 23.1 fold. For the same substance, the Fold enhancement of AL5E over ACE2 (IC50, pseudovirus inhibition) [13] was 32.5 fold, the IC50, inhibition of pseudovirus infection (Caco-2, luciferase) [13] was 0.2 nM and the EC50, inactivation of pseudovirus (Caco-2, luciferase) [14] was 8.72 nM. The Fold enhancement of AL5E over ACE2 (EC50, pseudovirus inactivation) [14] was 27.9 fold, the Fold enhancement of AL5E over ACE2 (IC50, pseudovirus inhibition) [14] was 47.7 fold and the IC50, inhibition of pseudovirus infection (Caco-2, luciferase) [14] was 0.13 nM. For the same substance, the EC50, inactivation of pseudovirus (Caco-2, luciferase) [15] was 8.21 nM, the Fold enhancement of AL5E over ACE2 (EC50, pseudovirus inactivation) [15] was 73.7 fold and the Fold enhancement of AL5E over ACE2 (IC50, pseudovirus inhibition) [15] was 30.3 fold. The IC50, inhibition of pseudovirus infection (Caco-2, luciferase) [15] was 0.16 nM, the EC50, inactivation of pseudovirus (Caco-2, luciferase) [16] was 8.62 nM and the Fold enhancement of AL5E over ACE2 (EC50, pseudovirus inactivation) [16] was 47.2 fold. For the same substance, the Fold enhancement of AL5E over ACE2 (IC50, pseudovirus inhibition) [16] was 95.4 fold, the IC50, inhibition of pseudovirus infection (Caco-2, luciferase) [16] was 0.08 nM and the EC50, inactivation of pseudovirus (Caco-2, luciferase) [17] was 3.04 nM. For the same substance, the Fold enhancement of AL5E over ACE2 (EC50, pseudovirus inactivation) [17] was 108 fold, the Fold enhancement of AL5E over ACE2 (IC50, pseudovirus inhibition) [17] was 96.8 fold and the IC50, inhibition of pseudovirus infection (Caco-2, luciferase) [17] was 0.13 nM.
